Experimental data from US20230287088A1 (BIONTECH, published 2023).
Residue numbers refer to the chain shown, from its start.

B1: P043.A.00023.E05 (antibody, V domains shown)
VH: QSLEESGGRLVTPGTPLTLTCTVSGFSLSSYAMSWVRQAPGKGLEWIGIISSSGSTYYASWAKGRFTISKTSTTVDLKITSPTTEDTATYFCARDASSRGYYYYYGMDPWGPGTLVTVSS
VL: AIQMTQSPSSLAASVGDTVTITCKASEDIGYGLNWYQQKLGIAPKLLIYGANTLESGVPSRFSGSGSETDYTLTISSVQAEDAGIYYCQQGYSTPLTFGAGTKVEIK
notes: also called 443; protein sample ID 443
B2: P043.A.00017.E04 (antibody, V domains shown)
VH: QSVEESGGRLVTPGTPLTLTCTVSGFSLNNYAMNWVRQAPGKGLEWIGIISSSGNTYYANWAKGRFTISKTSTTVDLKITSPTTEDTATYFCARDSYPGYSPYYGMDPWGPGTLVTVSS
VL: B1 VL with G30A, A43T, D70H, S93N, L96P
B3: P043.A.00097.B02 (antibody, V domains shown)
VH: QELVESGGGLVQAGESLKLSCKASGIDFSSYGISWVRQAPGKGLEWIAYIYPGFGITNYANSVKGRFTISSDNAQNTVFLQMTSLTASDTATYFCTRAYASSSGYYIHYFNLWGPGTLVTVSS
VL: B1 VL with G91A
B4: P043.A.00092.C12 (antibody, V domains shown)
VH: QEELKETGGGLVQPGGSLTLSCKASGFDFSSYYMSWVRQAPGKGLEWIGVIYASKGSTDYASWVNGRFTISSDNAQNTVDLQMNSLTAADTATYYCARSKRFYTYGYAGYAYAHYYYGMDLWGPGTLVTVSS
VL: B1 VL with N52D
notes: also called 472; protein sample ID 472
B5: P043.A.00023.A08 (protein sample ID 446) (antibody, V domains shown)
VH: QSVEESGGRLVTPGTPLTLTCTVSGFSLSKYAMSWVRQAPGKGLEWIGIISSGGSTYYASWAKGRFTISKTSSTTVDLKITSPTTEDTATYFCARAGYPGYSPHYFNIWGPGTLVTVSL
VL: B1 VL with G32E, S63T, L96P
B6: P043.A.00017.E07 (protein sample ID 449) (antibody, V domains shown)
VH: QSVEESGGRLVTPGTPLTLTCTVSGFSLSSYAMSWVRQAPGKGLEWIGIISSSGSTYYASWAKGRFTISKTSTTVDLKITSPTTEDTATYFCARAMYPGYSTGVYNIWGPGTLVTVSL
VL: B1 VL with G32E, S93N, L96N
B7: P043.A.00020.D06 (protein sample ID 444) (antibody, V domains shown)
VH: QSVEESGGRLVTPGTPLTLTCTVSGFSLSSYAMNWVRQAPGKGLEWIGIISSSGSTYYASWAKGRFTISKTSTTVDLKITSPTTEDTATYFCARVGAGYAGYGYDNYYGMDPWGPGTLVTVSS
VL: B1 VL
B8: P043.A.00024.C11 (protein sample ID 451) (antibody, V domains shown)
VH: B1 VH with L3V, S55T, R65P, D95G, A96G, S97A, S98G, R99Y, Y102A, Y103H
VL: B1 VL
B9: P043.A.00018.C02 (protein sample ID 450) (antibody, V domains shown)
VH: B1 VH with L3V, S51N, S53G, G54R, S97T, R99I, Y103R
VL: B1 VL
B10: P043.A.00109.B12 (antibody, V domains shown)
VH: QSLEESGGGLVKPEGSLTLTCKASGFDLNTYYYMCWVRQAPGKGLEWIACIATSDSGHTAYASWARGRFTISKTSSTTVTLQMTGLTAADTATYFCARGGRSVGDGVDLWGPGTLVTVSS
VL: DIVMTQTPASVEAAVGGTVTIKCQASQSISSWLAWYQQKPGQPPKLLIYDASDLASGVPSRFKGSGSGTEFTLTISDLESADAATYYCQSYLYVESGSHGFGFGGGTEVVVR
notes: also called 468; protein sample ID 468
B11: P043.A.00117.C08 (protein sample ID 469) (antibody, V domains shown)
VH: B10 VH with A52G
VL: B10 VL with S52F, V94G
B12: P043.A.00032.C04 (antibody, V domains shown)
VH: QSLEESGGRLVTPGTPLTLTCTASGFSLSSYWMSWVRQAPGKGLEWIGIIYVSGSTYYASWAKGRFTISKTSTTVDLKMTSLTTEDTATYFCARVDYSTGWPLFNIWGPGTLVTVSL
VL: AQVLTQTASPVSAAVGGTVTINCQSSQSVYDNNWLGWYQQKPGQPPKLLIYGASILASGVPSRFKGSGSGTQFTLTISDLESDDAATYYCQGGCSGNTFVFGGGTEVVVK
notes: also called 452; protein sample ID 452
B13: P043.A.00047.H08 (protein sample ID 447) (antibody, V domains shown)
VH: QSLEESGGDLVKPGASLTLTCTASGFSFSSDGMCWVRQAPGKGLEWIACIAAGSSGSTYYATWAQGRFTISKSSSTTVTLQMTSLTAADTATYFCAGEDYTGNNYYALWGPGTLVTVSS
VL: AIDMTQTPSPVSAVVGDTVTINCQASENIYSFLAWYQQKPGQPPKLLIYFASKLASGVPSRFKGSGSGTQFTLTISDVHSDDAAIYYCQQTGTYSDADNTFGGGTEVVVK
notes: also called antibody with the Protein sample ID 447
B14: P043.A.00036.C07 (antibody, V domains shown)
VH: QSLEESGGDLVKPGASLTLTCTASGFSFSSSYWICWVRQAPGKGLEWIGCIYTGSGSTWYASWAKGRFTISKTSSTTVTLQMTSLTAADTATYFCARGYGSYMYDFWGPGTLVTVSS
VL: DVVMTQTPASVEAAVGGTVTIKCQASQSISTALAWYQQKPGQPPKLLIYSASTLESGVPSRFKGSGSGTEFTLAISDLESADAATYYCQGADGSSSSFGGGTEVVVK
notes: also called 448; protein sample ID 448
B15: P043.A.00095.D06 (protein sample ID 470) (antibody, V domains shown)
VH: QEQLEESGGDLVKPEGSLTLTCTASGFSFSSNYWICWVRQAPGKGLEWIGCIYIGSGDTYYASWAKGRFTISKTSSTTVTLQMTSLTAADTATYFCARSYTPGSYYNMNLWGPGTLVTVSS
VL: DVVMTQTPSSVSAAVGGTVTINCQASQQISNELSWYQQKSGQPPKLLIYDASDLASGVPSRFKGSGSGTEFTLTISDLESADAATYYCQSTGGASSDGNAFGGGTEVVVK
notes: also called S1 targeting antibody 470; anti-S1-antibody 470
B16: 408: Antibody anti-S1 antibody (LS) (antibody)
heavy: not shown
light: […]

Target: SARS-CoV-2 S1 protein (HIS tag, active trimer; Acro Biosystems #SPN-C52H8) (SARS-CoV-2, UniProt P0DTC2 16-1213)
Experiment: ELISA on coated S active trimer

Binder | EC50 [ng/mL]
B1 | 9
B2 | 6.4
B3 | 6.9
B4 | 10.6
B5 | 5.6
B6 | 6.6
B7 | 11.2
B8 | 8.8
B9 | 6.6
B10 | 10
B11 | 7.8
B12 | 8.2
B13 | 9.1
B14 | 7.7
B15 | 6.9
B16 | 25.6
